Data as given in patent US20120149881A1.
Values belong to the binder of their own block, whether it stands above or below them.

Target: human IgE with the M1′ sequence (long form of membrane IgE) expressed on transduced BJAB or Daudi cells (human), P01854
Assay: cell-based or functional assay

Chain of human IgE with the M1′ sequence (long form of membrane IgE) expressed on transduced BJAB or Daudi cells (human), P01854 (P01854 116-546 I515L limits assumed): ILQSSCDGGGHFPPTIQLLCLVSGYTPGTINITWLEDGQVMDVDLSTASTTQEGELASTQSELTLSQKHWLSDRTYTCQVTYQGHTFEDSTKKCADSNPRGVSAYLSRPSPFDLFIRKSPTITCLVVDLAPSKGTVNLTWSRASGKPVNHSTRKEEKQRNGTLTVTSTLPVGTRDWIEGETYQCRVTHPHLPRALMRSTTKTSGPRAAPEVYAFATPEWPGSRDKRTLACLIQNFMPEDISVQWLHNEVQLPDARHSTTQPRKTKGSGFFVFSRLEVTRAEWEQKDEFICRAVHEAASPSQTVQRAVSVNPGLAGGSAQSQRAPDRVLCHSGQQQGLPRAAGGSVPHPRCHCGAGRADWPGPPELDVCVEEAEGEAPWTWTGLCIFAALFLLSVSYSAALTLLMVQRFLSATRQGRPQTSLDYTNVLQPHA

B1: murine anti-IgE/M1′ antibody 47H4 (antibody)
heavy: EVKLVESGGGLVQPGGSRKLSCAASGFTFSDYGMAWVRQAPGKGPEWVAFISDLAYTIYYADTVTGRFTISRENAKNTLYLEMSSLRSEDTALYYCARDNWDAMDYWGQGTSVTVSSAKTTPPSSVYPLAPGSAAQTNSMVTLGCLVKGYFPEPVTVTWNSGSLSSGVHTFPAVLQSDLYTLSSSVTVPSSTWPSETVTCNVAHPASSTKVDKKIVPRDCGCKPCICTVPEVSSVFIFPPKPKDVLTITLTPKVTCVVVDISKDDPEVQFSWFVDDVEVHTAQTQPREEQFNSTFRSVSELPIMHQDWLNGKEFKCRVNSAAFPAPIEKTISKTKGRPKAPQVYTIPPPKEQMAKDKVSLTCMITDFFPEDITVEWQWNGQPAENYKNTQPIMDTDGSYFVYSKLNVQKSNWEAGNTFTCSVLHEGLHNHHTEKSLSHSPGK
light: DIVLTQTPLSLPVSLGDQASISCRSSQSLVHNNGNTYLHWYLQKPGQSPKLLIYKVSNRFSGVPDRFSGSGSGTDFTLKISRLEAEDLGVYFCSQNTLVPWTFGGGTKVEIKRADAAPTVSIFPPSSEQLTSGGASVVCFLNNFYPKDINVKWKIDGSERQNGVLNSWTDQDSKDSTYSMSSTLTLTKDEYERHNSYTCEATHKTSTSPIVKSFNRNEC
apoptosis of Daudi-IgE/Long cells (Annexin V/PI, 72 h), no crosslinker; concentration at which seen: > 10 µg/mL

B3: humanized anti-IgE/M1′ antibody 47H4.v5 (antibody, V domains shown)
VH: EVQLVESGGGLVQPGGSLRLSCAASGFTFSDYGIAWVRQAPGKGLEWVAFISDLAYTIYYADTVTGRFTISRDNSKNTLYLQMNSLRAEDTAVYYCARDNWDAMDYWGQGTLVTVSS
VL: DIQMTQSPSSLSASVGDRVTITCRSSQSLVHNNANTYLHWYQQKPGKAPKLLIYKVSNRFSGVPSRFSGSGSGTDFTLTISSLQPEDFATYYCSQNTLVPWTFGQGTKVEIKR
EC50 of ADCC: NK-cell lysis of BJAB cells overexpressing human IgE/M1′ (LDH release): 6.6 nM

B4: murine anti-IgE/M1′ antibody 26A11 (antibody)
heavy: EVQLQQSGPELVKPGASVKMSCKASGYTFTDYYMMWVKQSHGKSLEWIGDINPNNYDTSYNQKFKGKATLTVDKSSSTAYIQLNSLTSEDSAVYYCASKAYWGQGTLVTVSAASTTPPSVYPLAPGSAAQTNSMVTLGCLVKGYFPEPVTVTWNSGSLSSGVHTFPAVLQSDLYTLSSSVTVPSSTWPSETVTCNVAHPASSTKVDKKIVPRDCGCKPCICTVPEVSSVFIFPPKPKDVLTITLTPKVTCVVVDISKDDPEVQFSWFVDDVEVHTAQTQPREEQFNSTFRSVSELPIMHQDWLNGKEFKCRVNSAAFPAPIEKTISKTKGRPKAPQVYTIPPPKEQMAKDKVSLTCMITDFFPEDITVEWQWNGQPAENYKNTQPIMDTDGSYFVYSKLNVQKSNWEAGNTFTCSVLHEGLHNHHTEKSLSHSPGK
light: DIQMTQTTSSLSASLGDRVTITCRSSQDISNSLNWYQQKPDGPVKLLIYSTSRLHSGVPSRFSGSGSGTDYSLTISNLEQEDLATYFCQQGHTLPWTFGGGTKVEIKRADAAPTVSIFPPSSEQLTSGGASVVCFLNNFYPKDINVKWKIDGSERQNGVLNSWTDQDSKDSTYSMSSTLTLTKDEYERHNSYTCEATHKTSTSPIVKSFNRNEC
apoptosis of Daudi-IgE/Long cells, no crosslinker; concentration at which seen: > 0.1 µg/mL | percent apoptosis of Daudi-IgE/Long cells, no crosslinker: 30 to 50%

Second part, the binder after the results:

EC50 of ADCC: NK-cell lysis of BJAB cells overexpressing human IgE/M1′ (LDH release): 0.83 nM
B2: afucosylated humanized anti-IgE/M1′ antibody 47H4 v5 (antibody, V domains shown)
VH: B3 VH
VL: B3 VL
modifications: here or on the partner: afucosylated Fc carbohydrate (produced in BIOWA cell lines)

apoptosis of Daudi-IgE/Long cells (Annexin V/PI, 72 h), no crosslinker; concentration at which seen: > 10 µg/mL
B5: murine anti-IgE/M1′ antibody 7A6 (antibody)
heavy: QVQLQQSGAELVRPGASVTLSCKASGYTFIDYEMHWVKQTPVHGLEWIGAIDPETGTTAYNQKFKGKATLTAAKSSSTAYMELRSLTSEDSAVYYCTRLRPHYDYDNAMDSWGQGTTLTVSSASTKGPSVYPLAPGSAAQTNSMVTLGCLVKGYFPEPVTVTWNSGSLSSGVHTFPAVLQSDLYTLSSSVTVPSSTWPSETVTCNVAHPASSTKVDKKIVPRDCGCKPCICTVPEVSSVFIFPPKPKDVLTITLTPKVTCVVVDISKDDPEVQFSWFVDDVEVHTAQTQPREEQFNSTFRSVSELPIMHQDWLNGKEFKCRVNSAAFPAPIEKTISKTKGRPKAPQVYTIPPPKEQMAKDKVSLTCMITDFFPEDITVEWQWNGQPAENYKNTQPIMDTDGSYFVYSKLNVQKSNWEAGNTFTCSVLHEGLHNHHTEKSLSHSPGK
light: DIVMSQSPSSLTVSVGEKVTLSCKSSQTLLYSTNQKNYLAWYQQKPGQSPKLLIYWASTRESGVPDRFTGSGSGTDFTLTISSVKAEDLAVYYCQQYYSYPYTFGGGTKVEIKRADAAPTVSIFPPSSEQLTSGGASVVCFLNNFYPKDINVKWKIDGSERQNGVLNSWTDQDSKDSTYSMSSTLTLTKDEYERHNSYTCEATHKTSTSPIVKSFNRNEC
